Test results from publication PMC11241417.

Biological target: URH1p riboside hydrolase from Saccharomyces cerevisiae (S. cerevisiae) (UniProt Q04179)
Assay: AUC; sedimentation velocity, absorbance 280 nm, 45,000 rpm; samples kept at 4 °C for two weeks; 2.6, 5.2, 10.4 and 15.6 µM; monomer to disulphide-linked dimer

Substance “URH1p riboside hydrolase from Saccharomyces cerevisiae (from UniProt Q04179 2-340) (enzyme)” has a ratio between monomeric and dimeric URH1p in the sample of 33% and a stoichiometry N of 2.
